# Test results from patent US20050208610.
# Experiments:
# [1] = system: Apolipoprotein CIII purified from plasma derived from multiple human donors
# [2] = system: apolipoprotein CIII fragment corresponding to amino acids 41-79 (SEQ ID NO:4), designated CR001
# apolipoprotein CIII fragment corresponding to amino acids 41-79 (SEQ ID NO:4), designated CR001, sequence (chain, as listed by the source): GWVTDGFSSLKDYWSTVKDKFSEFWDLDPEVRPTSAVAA
# Apolipoprotein CIII purified from plasma derived from multiple human donors, sequence (chain, as listed by the source): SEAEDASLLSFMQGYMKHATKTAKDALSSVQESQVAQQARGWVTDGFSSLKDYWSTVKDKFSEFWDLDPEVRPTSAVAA
substance,measurement,setting,value
factor Xa,factor Xa activity when tested alone on the chromogenic substrate S-2765,[1],neither apoliproprotein CIII nor the apolipoprotein CIII fragment have any direct inhibitory effect on factor Xa activity
same,factor Xa activity when tested alone on the chromogenic substrate S-2765,[2],neither apoliproprotein CIII nor the apolipoprotein CIII fragment have any direct inhibitory effect on factor Xa activity
